Legend:
[1] = molecular target: farnesoid X receptor ligand binding domain (FXR-LBD; isoform 4; amino acids 244-472) (human); assay: NMR titration; 1H/13C-HSQC of Leu-labeled NCoR and NCoA peptides (50 µM) with FXR-LBD (50 µM) and partial agonist 1 (250 µM); 298 K, 50 mM Tris pH 8.3, 500 mM NaCl, 2 mM TCEP; populations from signal intensities
[2] = molecular target: farnesoid X receptor ligand binding domain (FXR-LBD; isoform 4; amino acids 244-472) (human); assay: NMR titration; 1H/13C-HSQC of Leu-labeled NCoR and NCoA peptides (50 µM) with FXR-LBD (50 µM) and fexaramine (250 µM); 298 K, 50 mM Tris pH 8.3, 500 mM NaCl, 2 mM TCEP; populations from signal intensities
[3] = molecular target: farnesoid X receptor ligand binding domain (FXR-LBD; isoform 4; amino acids 244-472) (human); assay: NMR titration; 1H/13C-HSQC of Leu-labeled NCoR and NCoA peptides (50 µM) with FXR-LBD (50 µM) and CDCA (250 µM); 298 K, 50 mM Tris pH 8.3, 500 mM NaCl, 2 mM TCEP; populations from signal intensities
[4] = molecular target: farnesoid X receptor ligand binding domain (FXR-LBD; isoform 4; amino acids 244-472) (human); assay: NMR titration; HSQC of the quaternary mixture of FXR-LBD, antagonist guggulsterone, labeled co-activator (NCoA) and co-repressor (NCoR) peptides; protein:peptide:ligand 50:50:250 µM, 298 K
[5] = molecular target: farnesoid X receptor ligand binding domain (FXR-LBD; isoform 4; amino acids 244-472) (human); assay: NMR titration; 1H/13C-HSQC of Leu-labeled NCoR and NCoA peptides (50 µM) with FXR-LBD (50 µM) and ivermectin (250 µM); 298 K, 50 mM Tris pH 8.3, 500 mM NaCl, 2 mM TCEP; populations from signal intensities
[6] = molecular target: farnesoid X receptor ligand binding domain (FXR-LBD; isoform 4; amino acids 244-472) (human); assay: NMR titration; 1H/13C-HSQC of Leu-labeled NCoR and NCoA peptides (50 µM) with FXR-LBD (50 µM) and GW4064 (250 µM); 298 K, 50 mM Tris pH 8.3, 500 mM NaCl, 2 mM TCEP; populations from signal intensities
[7] = molecular target: the molecule itself; assay: crystal structure; FXR244-472 (75 µM) incubated with 150 µM partial agonist 1 (DM175), concentrated to 375 µM, then 750 µM NCoA-2 740-752 peptide; hanging drop, 4 °C, 300 mM MgCl2, 100 mM Bis-Tris pH 7, 15-20% PEG 3350, micro seeding

**Q.** Which free co-repressor/free co-activator ratio (part of free co-activator) [1] does the source give for “Nuclear receptor co-activator 2 peptide (NCoA-2 740-752)” here?
**A.** 70

**Q.** What about the free co-repressor/free co-activator ratio (part of free co-activator) [2] of the same molecule?
**A.** 23

**Q.** What about the free co-repressor/free co-activator ratio (part of free co-activator) [3] of the same molecule?
**A.** 13

**Q.** What about the free co-repressor/free co-activator ratio (part of free co-activator) [4] of the same molecule?
**A.** 85

**Q.** And the free co-repressor/free co-activator ratio (part of free co-activator) [5]?
**A.** 75

**Q.** What about the free co-repressor/free co-activator ratio (part of free co-activator) [6] of the same molecule?
**A.** 14

**Q.** How did the free co-repressor/free co-activator ratio (part of free co-repressor) [1] turn out when “nuclear receptor co-repressor 1 peptide (NCoR-1, residues 2256-2278)” was run?
**A.** 30

**Q.** What about the free co-repressor/free co-activator ratio (part of free co-repressor) [2] of the same molecule?
**A.** 77

**Q.** And the free co-repressor/free co-activator ratio (part of free co-repressor) [3]?
**A.** 87

**Q.** And the free co-repressor/free co-activator ratio (part of free co-repressor) [4]?
**A.** 15

**Q.** What about the free co-repressor/free co-activator ratio (part of free co-repressor) [5] of the same molecule?
**A.** 25

**Q.** What about the free co-repressor/free co-activator ratio (part of free co-repressor) [6] of the same molecule?
**A.** 86

B1: farnesoid X receptor ligand binding domain (FXR-LBD; isoform 4; amino acids 244-472) (domain or fragment, human)
chain: ELTPDQQTLLHFIMDSYNKQRMPQEITNKILKEEFSAEENFLILTEMATNHVQVLVEFTKKLPGFQTLDHEDQIALLKGSAVEAMFLRSAEIFNKKLPSGHSDLLEERIRNSGISDEYITPMFSFYKSIGELKMTQEEYALLTAIVILSPDRQYIKDREAVEKLQEPLLDVLQKLCKIHQPENPQHFACLLGRLTELRTFNHHHAEMLMSWRVNDHKFTPLLCEIWDVQ
notes: numbers count on: isoform 4; also called FXR244-472; NR1H4; source: E. coli BL21(DE3) gold, purified (NiNTA, Tev cleavage, Superdex 200); not shown: His6, N-terminal, cleaved
**Q.** Does B1 bind [7]?
**A.** binds
